In publication PMC7432852, “2-Ketoglutarate-Generated In Vitro Enzymatic Biosystem Facilitates Fe(II)/2-Ketoglutarate-Dependent Dioxygenase-Mediated C–H Bond Oxidation for (2S,3R,4S)-4-Hydroxyisoleucine Synthesis” (International Journal of Molecular Sciences, 2020):

Assays:
[1] = tested on: LGOX (L-glutamate oxidase); conditions: 50 mM Tris-HCl pH 7.0, 30 °C; L-Glu 0.5–20 mM
Source text: initial rate of 2-KG formation by HPLC, catalase present, Michaelis-Menten fit on LGOX (L-glutamate oxidase)

[2] = substrate: O=C(O)CCC(=O)C(=O)O; assay: initial rate of 4-HIL formation by HPLC, Michaelis-Menten fit; assay type: biochemical, Bacillus thuringiensis; conditions: 50 mM Tris-HCl pH 7.0, 30 °C, co-substrate L-Ile, FeSO4, L-ascorbic acid, 2-KG 1–40 mM
Source text: (§1) initial rate of 4-HIL formation by HPLC, Michaelis-Menten fit on IDO (L-Ile dioxygenase)

[3] = substrate: CC[C@H](C)[C@H](N)C(=O)O; assay: as above; assay type: biochemical, Bacillus thuringiensis; conditions: 50 mM Tris-HCl pH 7.0, 30 °C, co-substrate 2-KG, FeSO4, L-ascorbic acid, L-Ile 0.5–20 mM
Source text: as §1

Molecule `N[C@@H](CCC(=O)O)C(=O)O` [L-Glu] has a Km [1] of 2.65 ± 0.11 mM.

B1: IDO (L-Ile dioxygenase) (Bacillus thuringiensis) (protein)
chain: MKMSGFSIEEKVHEFESKGFLEISNEIFLQEEENHSLLTQAQLDYYNLEDDAYGECRARSYSRYIKYVDSPDYILDNSNDYFQSKEYNYDDGGKVRQFNSINDSFLCNPLIQNIVRFDTEFAFKTNIIDKSKDLIIGLHQVRYKATKERPSFSSPIWLHKDDEPVVFLHLMNLSNTAIGGDNLIANSPREINQFISLKEPLETLVFGQKVFHAVTPLGTECSTEAFRDILLVTFSYKETK
For B1, the Km [2] was 15.12 ± 0.08 mM, the Vmax [2] was 19.8 µmol/min/mg and the kcat [2] was 9.18 ± 0.07 s⁻¹. For the same molecule, the Km [3] was 6.34 ± 0.12 mM, the Vmax [3] was 8.99 µmol/min/mg and the kcat [3] was 4.18 ± 0.08 s⁻¹.
